Laboratory results published in IntAct's records for PubMed 23700447.

B1: Membrane protein (Human SARS coronavirus), P59596 (parent)
chain: MADNGTITVEELKQLLEQWNLVIGFLFLAWIMLLQFAYSNRNRFLYIIKLVFLWLLWPVTLACFVLAAVYRINWVTGGIAIAMACIVGLMWLSYFVASFRLFARTRSMWSFNPETNILLNVPLRGTIVTRPLMESELVIGAVIIRGHLRMAGHSLGRCDIKDLPKEITVATSRTLSYYKLGASQRVGTDSGFAAYNRYRIGNYKLNTDHAGSNDNIALLVQ

Variants of: B1
Conditions: with ncap_sars N

| Variant | effect of a mutation on the interaction |
| --- | --- |
| L218A;L219A | with no effect |
